Source: doi:10.1101/780452

Target: BSA-Man (glycoprotein bearing 12 glycosylated sites) (bovine (from the name BSA)), P02769
Test: SPR
Conditions: remark: other sources report otherwise

BSA-Man (glycoprotein bearing 12 glycosylated sites) (bovine (from the name BSA)), P02769, sequence (P02769 25-607): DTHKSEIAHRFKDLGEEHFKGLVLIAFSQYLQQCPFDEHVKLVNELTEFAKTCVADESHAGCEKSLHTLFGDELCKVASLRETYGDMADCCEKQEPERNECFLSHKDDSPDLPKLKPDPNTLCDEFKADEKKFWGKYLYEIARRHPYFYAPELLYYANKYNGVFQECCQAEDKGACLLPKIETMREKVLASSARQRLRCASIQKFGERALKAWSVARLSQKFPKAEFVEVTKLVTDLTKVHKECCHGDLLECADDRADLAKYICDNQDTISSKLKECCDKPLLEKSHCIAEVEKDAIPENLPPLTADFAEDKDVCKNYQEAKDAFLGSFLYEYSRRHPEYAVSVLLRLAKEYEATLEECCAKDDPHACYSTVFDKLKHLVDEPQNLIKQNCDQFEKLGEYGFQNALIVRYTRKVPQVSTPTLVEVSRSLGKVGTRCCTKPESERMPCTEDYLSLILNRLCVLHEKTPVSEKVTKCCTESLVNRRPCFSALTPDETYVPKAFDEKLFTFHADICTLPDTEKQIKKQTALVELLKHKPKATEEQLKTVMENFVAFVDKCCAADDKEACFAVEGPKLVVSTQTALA

B1: DC-SIGN ECD (construct without StreptagII), Q9NNX6 59-404 (domain or fragment)
chain: QVSKVPSSISQEQSRQDAIYQNLTQLKAAVGELSEKSKLQEIYQELTQLKAAVGELPEKSKLQEIYQELTRLKAAVGELPEKSKLQEIYQELTWLKAAVGELPEKSKMQEIYQELTRLKAAVGELPEKSKQQEIYQELTRLKAAVGELPEKSKQQEIYQELTRLKAAVGELPEKSKQQEIYQELTQLKAAVERLCHPCPWEWTFFQGNCYFMSNSQRNWHDSITACKEVGAQLVVIKSAEEQNFLQLQSSRSNRFTWMGLSDLNQEGTWQWVDGSPLLPSFKQYWNRGEPNNVGEEDCAEFSGNGWNDDKCNLAKFWICKKSAASCSRDEEQFLSPAPATPNPPPA
modifications: here or on the partner: 12 glycosylated sites (mannose glycans, up to 12 glycans displayed)
Q: With B1 as the binder, how does the Kd read?
A: 3.74 µM
